Laboratory results as given in PMC8633249 (2021).

Legend:
[1] = target: T1, AGL55, 55-mer A-domain peptide of PAM_(NS88.2) (Streptococcus pyogenes (GAS isolate …)); assay: ITC; 4°C
[2] = target: T1, AGL55, 55-mer A-domain peptide of …; assay: ITC; 25°C
[3] = target: T1, AGL55, 55-mer A-domain peptide of …; assay: ITC; 37°C

B1: K2hPg, kringle-2 domain of human plasminogen (domain or fragment)
chain: YVEFSEECMHGSGENYDGKISKTMSGLECQAWDSQSPHAHGYIPSKFPNKNLKKNYCRNPDRDLRPWCFTTDPNKRWEYCDIPRCAA
- Kd [1]: 2.6 nM
- Kd [2]: 31 nM
- Kd [3]: 236 nM
